Where “and” joins values, the source holds several entries; their conditions need not be identical. Identical values can stand only once.
Key:
negative staining EM = target: the molecule itself; assay: negative staining EM
SAXS = target: the molecule itself; assay: SAXS

Protein | stoichiometry N (negative staining EM) | stoichiometry N (SAXS)
Twinkle (human mitochondrial replicative helicase), mature, aa 43-684, produced in E. coli (enzyme, UniProt Q96RR1 43-684, looked up) ETLQALDMPVLPVTATEIRQYLRGHGIPFQDGHSCLRALSPFAESSQLKGQTGVTTSFSLFIDKTTGHFLCMTSLAEGSWEDFQASVEGRGDGAREGFLLSKAPEFEDSEEVRRIWNRAIPLWELPDQEEVQLADTMFGLTKVTDDTLKRFSVRYLRPARSLVFPWFSPGGSGLRGLKLLEAKCQGDGVSYEETTIPRPSAYHNLFGLPLISRRDAEVVLTSRELDSLALNQSTGLPTLTLPRGTTCLPPALLPYLEQFRRIVFWLGDDLRSWEAAKLFARKLNPKRCFLVRPGDQQPRPLEALNGGFNLSRILRTALPAWHKSIVSFRQLREEVLGELSNVEQAAGLRWSRFPDLNRILKGHRKGELTVFTGPTGSGKTTFISEYALDLCSQGVNTLWGSFEISNVRLARVMLTQFAEGRLEDQLDKYDHWADRFEDLPLYFMTFHGQQSIRTVIDTMQHAVYVYDICHVIIDNLQFMMGHEQLSTDRIAAQDYIIGVFRKFATDNNCHVTLVIHPRKEDDDKELQTASIFGSAKASQEADNVLILQDRKLVTGPGKRYLQVSKNRFDGDVGVFPLEFNKNSLTFSIPPKNKARLKKIKDDTGPVAKKPSSGKKGATTQNSEICSGQAPTPDQPDTSKRSK | 6 | 7
Twinkle (human mitochondrial replicative helicase), aa 30-684, produced in SF9 insect cells (enzyme, UniProt Q96RR1 30-684, looked up) NLAPGPPRRRYRKETLQALDMPVLPVTATEIRQYLRGHGIPFQDGHSCLRALSPFAESSQLKGQTGVTTSFSLFIDKTTGHFLCMTSLAEGSWEDFQASVEGRGDGAREGFLLSKAPEFEDSEEVRRIWNRAIPLWELPDQEEVQLADTMFGLTKVTDDTLKRFSVRYLRPARSLVFPWFSPGGSGLRGLKLLEAKCQGDGVSYEETTIPRPSAYHNLFGLPLISRRDAEVVLTSRELDSLALNQSTGLPTLTLPRGTTCLPPALLPYLEQFRRIVFWLGDDLRSWEAAKLFARKLNPKRCFLVRPGDQQPRPLEALNGGFNLSRILRTALPAWHKSIVSFRQLREEVLGELSNVEQAAGLRWSRFPDLNRILKGHRKGELTVFTGPTGSGKTTFISEYALDLCSQGVNTLWGSFEISNVRLARVMLTQFAEGRLEDQLDKYDHWADRFEDLPLYFMTFHGQQSIRTVIDTMQHAVYVYDICHVIIDNLQFMMGHEQLSTDRIAAQDYIIGVFRKFATDNNCHVTLVIHPRKEDDDKELQTASIFGSAKASQEADNVLILQDRKLVTGPGKRYLQVSKNRFDGDVGVFPLEFNKNSLTFSIPPKNKARLKKIKDDTGPVAKKPSSGKKGATTQNSEICSGQAPTPDQPDTSKRSK | 6 and 7 | –
